From patent US20110177998A1 (COMPUGEN, published 2011)
Values belong to the binder of their own block, whether it stands above or below them. Positions of bridges follow the written chain, without caps; N, C: chain ends. Chains are numbered I, II in the order given. No end group written: not given here.

How the values were obtained:
[1] = target: T1, LGR8 (RXFP2) (human, UniProt Q8WXD0 1-754); experiment: cell-based or functional assay
[2] = target: T2, LGR7 (RXFP1) (human, UniProt Q9HBX9 1-757); experiment: cell-based or functional assay
T2 sequence (looked up): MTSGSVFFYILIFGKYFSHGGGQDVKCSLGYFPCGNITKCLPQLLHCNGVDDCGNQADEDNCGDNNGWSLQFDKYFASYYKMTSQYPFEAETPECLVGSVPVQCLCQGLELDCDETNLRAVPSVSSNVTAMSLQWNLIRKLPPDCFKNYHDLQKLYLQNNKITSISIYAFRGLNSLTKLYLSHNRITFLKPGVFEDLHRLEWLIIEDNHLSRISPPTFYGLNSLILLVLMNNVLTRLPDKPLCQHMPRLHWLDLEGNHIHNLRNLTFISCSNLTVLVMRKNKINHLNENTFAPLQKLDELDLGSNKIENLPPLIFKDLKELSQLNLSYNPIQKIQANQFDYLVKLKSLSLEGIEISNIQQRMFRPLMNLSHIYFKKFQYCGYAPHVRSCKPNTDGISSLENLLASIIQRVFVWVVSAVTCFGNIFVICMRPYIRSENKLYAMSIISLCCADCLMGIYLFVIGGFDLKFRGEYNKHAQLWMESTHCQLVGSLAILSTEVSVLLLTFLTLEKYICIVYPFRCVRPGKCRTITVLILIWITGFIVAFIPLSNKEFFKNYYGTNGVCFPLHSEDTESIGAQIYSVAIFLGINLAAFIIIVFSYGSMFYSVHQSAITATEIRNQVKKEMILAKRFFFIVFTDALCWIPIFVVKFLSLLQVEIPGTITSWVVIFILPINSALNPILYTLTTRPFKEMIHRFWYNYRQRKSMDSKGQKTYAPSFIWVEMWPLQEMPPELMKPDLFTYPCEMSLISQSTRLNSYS

[3] = target: T1, LGR8 (RXFP2); experiment: Competition binding against Europium-INSL3 on HEK-293T cells expressing LGR8

T1 sequence (Q8WXD0 whole entry): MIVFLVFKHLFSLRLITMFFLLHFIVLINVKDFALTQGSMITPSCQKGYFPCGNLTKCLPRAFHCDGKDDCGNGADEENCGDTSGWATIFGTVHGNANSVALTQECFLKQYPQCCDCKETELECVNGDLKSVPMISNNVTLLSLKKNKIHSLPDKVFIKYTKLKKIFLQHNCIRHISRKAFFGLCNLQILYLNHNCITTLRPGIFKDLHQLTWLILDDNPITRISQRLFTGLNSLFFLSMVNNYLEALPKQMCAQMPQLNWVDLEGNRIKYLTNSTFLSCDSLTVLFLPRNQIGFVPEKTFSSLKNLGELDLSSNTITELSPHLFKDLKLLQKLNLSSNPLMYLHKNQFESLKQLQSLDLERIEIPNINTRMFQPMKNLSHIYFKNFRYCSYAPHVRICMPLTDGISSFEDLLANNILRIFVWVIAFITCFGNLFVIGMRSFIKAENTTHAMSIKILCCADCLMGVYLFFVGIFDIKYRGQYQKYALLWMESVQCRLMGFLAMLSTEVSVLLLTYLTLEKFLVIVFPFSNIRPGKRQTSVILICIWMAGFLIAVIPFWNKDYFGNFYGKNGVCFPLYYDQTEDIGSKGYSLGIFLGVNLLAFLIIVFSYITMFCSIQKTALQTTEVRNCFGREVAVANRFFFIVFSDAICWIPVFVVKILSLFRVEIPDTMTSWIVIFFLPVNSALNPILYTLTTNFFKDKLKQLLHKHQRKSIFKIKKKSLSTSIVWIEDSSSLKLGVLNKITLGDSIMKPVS

B1: Peptide P59-S-Amide (Amide) (peptide)
peptide: AYAAFSV-NH2
pCRE-beta-gal reporter after 5 uM forskolin, CHO-K1 cells, % of Forskolin activity [1]: ~2 fold of Forskolin
pCRE-beta-gal reporter after 5 uM forskolin, CHO-K1 cells, % of Forskolin activity [2]: ~2 fold of Forskolin

B3: H2 Relaxin (ligand)
chain 1: QLYSALANKCCHVGCTKRSLARFC
chain 2: DSWMEEVIKLCGRELVRAQIAICGMSTWS
modifications: disulfide I:10-I:15, I:11-II:11, I:24-II:23; not fully specified (some residues); ends not checked
EC50, cell impedance dose response (ACEA RT-CES), transfected CHO-K1 cells [2]: ~100 nM

Other lines, results leading:

binding result [3]: binds
B2: Peptide P59C13V-Amide (amide) (peptide)
peptide: GQKGQVGPPGAAVRRAYAAFSV-NH2
notes: Synthetic peptide, the C-terminally amidated form of P59C13V; also called P59-Amide; P59 Amide

EC50, cell impedance dose response (ACEA RT-CES), transfected CHO-K1 cells [2]: ~300 nM
binding result [3]: binds
B4: Peptide P74C13V (free acid) (peptide)
peptide: GQKGQVGPPGAAVRRAYAAFSVGRRAYAAFSV
notes: Free acid C-terminus
